Source: publication PMC11585080 (ACS nano, 2019)

Assays:
Type in all cases: physicochemical
[1] = Phase diagram of Aβ1–40 aggregation in water/alcohol mixtures
[2] = ThT fluorescence assay of Aβ1–40 aggregation
[3] = Analytical ultracentrifugation
[4] = 6% HFIP, with sonication, 37 °C
[5] = without TFE, with sonication, 10 μM Aβ1–40, 10 mM sodium phosphate buffer pH 7.5, 100 mM NaCl, 5 μM ThT, 37 °C, three independent measurements
[6] = representatively selected peak, 2% HFIP, 25 °C

amyloid-β (1–40) [Aβ1–40]
solubility state at high alcohol concentrations ([1]; >40% TFE and >30% HFIP, regardless of extensive sonication): remained soluble
amyloid-forming region ([1]; water/TFE mixtures, with sonication, 100 mM NaCl, pH 7.5): 0–25 % TFE
lag time before sigmoidal increase in ThT fluorescence ([2]; 2% HFIP, quiescent, 10 μM, pH 7.5, 100 mM NaCl, 37 °C): ~ 6 h
conversion rate constant (protofibrils to amyloid fibrils) [2, 4]: 2.21 ± 0.85 h⁻¹
time at which the ThT reaction was completed [2, 4]: ~ 2 h
change in intensity of ThT fluorescence ([2]; 6% HFIP, without sonication, after ~35 h, 37 °C): did not change
ThT fluorescence during incubation ([2]; 50% HFIP, without sonication, test tubes, pH 7.5, 100 mM NaCl, 37 °C): maintained a very low intensity
effect of sonication on ThT fluorescence ([2]; greater than 40% TFE, with sonication, 10 μM, pH 7.5, 100 mM NaCl, 37 °C): did not affect the ThT fluorescence
change in ThT-based kinetics and CD spectra ([2]; more than 25% TFE, quiescent, 10 μM, pH 7.5, 100 mM NaCl, 37 °C): no change
change in ThT fluorescence intensity after incubation ([2]; without TFE, quiescent, incubation ~2 days, 10 μM, pH 7.5, 100 mM NaCl, 37 °C): no change
elongation rate constant of amyloid fibrillation (ThT) [2, 5]: ~ 10 h^−1
lag time of amyloid fibrillation (ThT) [2, 5]: ~ 1 h

Aβ1–40 oligomers: Aβ1–40 dissolved in 100% HFIP, diluted 10-fold with water; ThT-negative β-structured spherical oligomers
time of saturation of ThT fluorescence increase ([2]; oligomers + 10 mM sodium phosphate buffer pH 7.5, 100 mM NaCl, quiescent, 37 °C): ~ 35 h
increase in ThT intensity ([2]; oligomers + NaCl alone (50–2000 mM), no pH shift, continuous shaking): no increase
change in ThT fluorescence intensity of oligomer solution ([2]; oligomers without buffer (pH ~4), ~2 days without agitation, 37 °C): no changes
molecular weight of small oligomers ([3]; calculated from s-value ~5.2 S): ~ 70 kDa
molecular weight of large oligomers ([3]; calculated from s-value ~24.7 S): ~ 740 kDa
number of Aβ1–40 peptides forming small oligomers ([3]; from molecular weight ~70 kDa): ~ 17
number of Aβ1–40 peptides forming large oligomers ([3]; from molecular weight ~740 kDa): ~ 170
sedimentation coefficient (s-value), large oligomers [3, 6]: ~ 24.7 S
sedimentation coefficient (s-value), small oligomers [3, 6]: ~ 5.2 S
